The numbers were not newly measured in paper PMC7550652, which cites them from elsewhere.

As usually defined, the Kd is the constant that tells how readily two partners part at equilibrium.

The target in the data set is Calmodulin (Homo sapiens) (UniProt P0DP23).

As for ERα (from UniProt P03372), the Kd is 0.16 nM.
